Results published in publication PMC9482650, “Quantitative fragmentomics allow affinity mapping of interactomes” (Nature Communications, 2022).
Each block holds one binder with its values, some of them ahead of it.

Columns and labels:
Assay in all cases: holdup assay
Set-up in all cases: key: below the threshold = too weak to quantify, mostly under pKd 3.1 to 4
ARHGAP21, Q5T5U3 = target: T1, ARHGAP21, Q5T5U3
T1 sequence (Q5T5U3 45-169, limits assumed, looked up): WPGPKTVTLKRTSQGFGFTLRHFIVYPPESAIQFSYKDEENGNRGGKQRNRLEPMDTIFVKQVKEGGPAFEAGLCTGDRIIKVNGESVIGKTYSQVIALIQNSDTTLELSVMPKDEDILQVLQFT

DFNB31_2, Q9P202 = target: T2, DFNB31_2, Q9P202
T2 sequence (Q9P202 274-371, limits assumed, looked up): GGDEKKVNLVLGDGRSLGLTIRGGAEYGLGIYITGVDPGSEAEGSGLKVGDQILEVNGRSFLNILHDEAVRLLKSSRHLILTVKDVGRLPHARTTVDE

DLG3_2, Q92796 = target: T3, DLG3_2, Q92796
T3 sequence (Q92796 221-321, limits assumed, looked up): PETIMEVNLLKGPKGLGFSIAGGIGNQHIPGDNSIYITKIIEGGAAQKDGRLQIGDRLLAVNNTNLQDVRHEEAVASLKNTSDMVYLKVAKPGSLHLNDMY

FRMPD2_3, Q68DX3 = target: FRMPD2_3, Q68DX3
Sequence of FRMPD2_3, Q68DX3 (Q68DX3 1073-1166): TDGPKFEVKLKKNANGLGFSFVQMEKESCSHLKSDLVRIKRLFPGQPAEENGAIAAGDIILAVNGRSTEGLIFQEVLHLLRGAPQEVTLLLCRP

GIPC2, Q8TF65 = target: GIPC2, Q8TF65
Sequence of GIPC2, Q8TF65 (Q8TF65 112-203): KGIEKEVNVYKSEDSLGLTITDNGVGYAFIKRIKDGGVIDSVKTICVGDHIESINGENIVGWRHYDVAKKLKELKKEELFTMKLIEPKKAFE

GRIP1_3, Q9Y3R0 = target: T4, GRIP1_3, Q9Y3R0
T4 sequence (Q9Y3R0 247-346, limits assumed, looked up): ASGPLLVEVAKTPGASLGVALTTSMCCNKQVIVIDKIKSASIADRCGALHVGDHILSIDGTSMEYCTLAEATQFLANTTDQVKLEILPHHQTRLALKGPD

GRIP2_5, Q9C0E4 = target: GRIP2_5, Q9C0E4
Sequence of GRIP2_5, Q9C0E4 (Q9C0E4 544-642): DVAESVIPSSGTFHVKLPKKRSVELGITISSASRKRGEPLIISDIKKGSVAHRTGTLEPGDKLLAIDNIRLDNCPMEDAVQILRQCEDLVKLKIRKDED

GRIP2_7, Q9C0E4 = target: GRIP2_7, Q9C0E4
Sequence of GRIP2_7, Q9C0E4 (Q9C0E4 934-1023): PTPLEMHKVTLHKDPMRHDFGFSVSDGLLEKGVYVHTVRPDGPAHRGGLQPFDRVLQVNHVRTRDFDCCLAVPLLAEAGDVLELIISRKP

HTRA4, P83105 = target: T5, HTRA4, P83105
T5 sequence (P83105 378-476, limits assumed, looked up): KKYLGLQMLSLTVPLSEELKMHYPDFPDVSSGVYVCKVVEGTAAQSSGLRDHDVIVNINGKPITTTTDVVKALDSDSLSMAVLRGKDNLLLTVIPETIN

Inadl_10, Q8NI35 = target: Inadl_10, Q8NI35
Sequence of Inadl_10, Q8NI35 (Q8NI35 1673-1763): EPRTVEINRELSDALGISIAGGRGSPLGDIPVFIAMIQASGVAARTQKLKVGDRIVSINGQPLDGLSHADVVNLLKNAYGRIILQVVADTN

Inadl_2, Q8NI35 = target: Inadl_2, Q8NI35
Sequence of Inadl_2, Q8NI35 (Q8NI35 238-335): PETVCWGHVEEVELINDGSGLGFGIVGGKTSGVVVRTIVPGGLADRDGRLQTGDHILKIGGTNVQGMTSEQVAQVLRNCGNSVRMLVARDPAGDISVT

Inadl_6, Q8NI35 = target: Inadl_6, Q8NI35
Sequence of Inadl_6, Q8NI35 (Q8NI35 1058-1167): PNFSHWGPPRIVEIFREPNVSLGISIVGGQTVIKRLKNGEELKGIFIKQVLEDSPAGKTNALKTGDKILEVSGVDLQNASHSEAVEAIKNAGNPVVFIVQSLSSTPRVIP

LDB3, O75112 = target: LDB3, O75112
Sequence of LDB3, O75112 (O75112 1-94): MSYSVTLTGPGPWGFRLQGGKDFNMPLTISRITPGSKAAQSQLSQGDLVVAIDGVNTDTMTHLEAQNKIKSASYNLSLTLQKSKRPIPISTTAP

LIN7B, Q9HAP6 = target: T6, LIN7B, Q9HAP6
T6 sequence (Q9HAP6 88-185, limits assumed, looked up): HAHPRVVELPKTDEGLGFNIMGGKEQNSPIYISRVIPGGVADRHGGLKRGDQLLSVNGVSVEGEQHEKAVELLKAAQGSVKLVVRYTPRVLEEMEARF

MAGI1_2, Q96QZ7 = target: MAGI1_2, Q96QZ7
Sequence of MAGI1_2, Q96QZ7 (Q96QZ7 456-580): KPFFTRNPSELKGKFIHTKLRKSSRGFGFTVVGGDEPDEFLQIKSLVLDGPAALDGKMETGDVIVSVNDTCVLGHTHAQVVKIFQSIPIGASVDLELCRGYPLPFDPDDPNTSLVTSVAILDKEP

MAGI2_5, Q86UL8 = target: MAGI2_5, Q86UL8
Sequence of MAGI2_5, Q86UL8 (Q86UL8 915-1017): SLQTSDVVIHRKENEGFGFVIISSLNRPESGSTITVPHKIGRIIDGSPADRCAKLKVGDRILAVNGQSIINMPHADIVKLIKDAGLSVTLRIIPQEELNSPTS

MAGI3_2, Q5TCQ9 = target: MAGI3_2, Q5TCQ9
Sequence of MAGI3_2, Q5TCQ9 (Q5TCQ9 398-503): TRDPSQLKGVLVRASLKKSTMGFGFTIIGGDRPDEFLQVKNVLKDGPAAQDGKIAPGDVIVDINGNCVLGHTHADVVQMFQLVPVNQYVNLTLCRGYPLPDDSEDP

MPP6, Q9NZW5 = target: T7, MPP6, Q9NZW5
T7 sequence (Q9NZW5 125-219, limits assumed, looked up): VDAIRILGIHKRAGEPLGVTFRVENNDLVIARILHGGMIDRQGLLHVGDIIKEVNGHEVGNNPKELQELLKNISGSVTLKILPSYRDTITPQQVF

MPP7, Q5T2T1 = target: T8, MPP7, Q5T2T1
T8 sequence (Q5T2T1 134-230, limits assumed, looked up): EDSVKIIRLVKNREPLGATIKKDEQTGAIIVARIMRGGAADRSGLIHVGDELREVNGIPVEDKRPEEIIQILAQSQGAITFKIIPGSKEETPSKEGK

NHERF3_1, Q5T2W1 = target: T9, NHERF3_1, Q5T2W1
T9 sequence (Q5T2W1 4-100, limits assumed, looked up): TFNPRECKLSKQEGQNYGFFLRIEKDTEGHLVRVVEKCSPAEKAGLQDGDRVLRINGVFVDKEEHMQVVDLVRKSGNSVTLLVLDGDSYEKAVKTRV

PDZRN3_1, Q9UPQ7 = target: T10, PDZRN3_1, Q9UPQ7
T10 sequence (Q9UPQ7 244-349, limits assumed, looked up): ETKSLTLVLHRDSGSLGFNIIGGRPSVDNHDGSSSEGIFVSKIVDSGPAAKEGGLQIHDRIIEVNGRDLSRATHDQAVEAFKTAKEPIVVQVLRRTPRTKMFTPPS

PICK1, Q9NRD5 = target: PICK1, Q9NRD5
Sequence of PICK1, Q9NRD5 (Q9NRD5 17-115): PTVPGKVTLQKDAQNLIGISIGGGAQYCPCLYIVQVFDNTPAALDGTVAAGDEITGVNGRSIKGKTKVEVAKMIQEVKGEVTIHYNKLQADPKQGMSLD

SNTG1, Q9NSN8 = target: T11, SNTG1, Q9NSN8
T11 sequence (Q9NSN8 52-150, limits assumed, looked up): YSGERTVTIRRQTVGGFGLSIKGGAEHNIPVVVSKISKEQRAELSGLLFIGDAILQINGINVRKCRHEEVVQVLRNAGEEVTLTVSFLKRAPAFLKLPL

SYNJ2BP, P57105 = target: T12, SYNJ2BP, P57105
T12 sequence (P57105 8-110, limits assumed, looked up): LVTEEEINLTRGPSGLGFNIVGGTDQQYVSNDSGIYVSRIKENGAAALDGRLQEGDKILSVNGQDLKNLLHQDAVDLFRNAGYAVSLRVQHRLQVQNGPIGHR

[1] = plain residues with an end cap or a label only (N-terminal biotin on a linker: ado-ado)
[2] = modified: phospho on T at position -2 from the C-terminal residue

pKd (ARHGAP21, Q5T5U3; [1]): 3.97
pKd (DFNB31_2, Q9P202; [1]): below the threshold
pKd (DLG3_2, Q92796; [1]): 4.46
pKd (FRMPD2_3, Q68DX3; [1]): below the threshold
pKd (GIPC2, Q8TF65; [1]): below the threshold
pKd (GRIP1_3, Q9Y3R0; [1]): below the threshold
pKd (GRIP2_5, Q9C0E4; [1]): below the threshold
pKd (GRIP2_7, Q9C0E4; [1]): below the threshold
pKd (HTRA4, P83105; [1]): below the threshold
pKd (Inadl_10, Q8NI35; [1]): below the threshold
pKd (Inadl_2, Q8NI35; [1]): below the threshold
pKd (Inadl_6, Q8NI35; [1]): below the threshold
pKd (LDB3, O75112; [1]): below the threshold
pKd (LIN7B, Q9HAP6; [1]): below the threshold
pKd (MAGI1_2, Q96QZ7; [1]): 4.82
pKd (MAGI2_5, Q86UL8; [1]): below the threshold
pKd (MAGI3_2, Q5TCQ9; [1]): 5.19
pKd (MPP6, Q9NZW5; [1]): below the threshold
pKd (MPP7, Q5T2T1; [1]): below the threshold
pKd (NHERF3_1, Q5T2W1; [1]): below the threshold
pKd (PDZRN3_1, Q9UPQ7; [1]): 4.35
pKd (PICK1, Q9NRD5; [1]): below the threshold
pKd (SNTG1, Q9NSN8; [1]): below the threshold
pKd (SYNJ2BP, P57105; [1]): 5.12
Binder: SMLNRRTTPV [CACNG4, Q9UBN1]

pKd (ARHGAP21, Q5T5U3; [2]): below the threshold
pKd (DFNB31_2, Q9P202; [2]): below the threshold
pKd (DLG3_2, Q92796; [2]): below the threshold
pKd (FRMPD2_3, Q68DX3; [2]): below the threshold
pKd (GIPC2, Q8TF65; [2]): below the threshold
pKd (GRIP1_3, Q9Y3R0; [2]): below the threshold
pKd (GRIP2_5, Q9C0E4; [2]): below the threshold
pKd (GRIP2_7, Q9C0E4; [2]): below the threshold
pKd (HTRA4, P83105; [2]): below the threshold
pKd (Inadl_10, Q8NI35; [2]): below the threshold
pKd (Inadl_2, Q8NI35; [2]): below the threshold
pKd (Inadl_6, Q8NI35; [2]): below the threshold
pKd (LDB3, O75112; [2]): 3.47
pKd (LIN7B, Q9HAP6; [2]): below the threshold
pKd (MAGI1_2, Q96QZ7; [2]): below the threshold
pKd (MAGI2_5, Q86UL8; [2]): below the threshold
pKd (MAGI3_2, Q5TCQ9; [2]): below the threshold
pKd (MPP6, Q9NZW5; [2]): below the threshold
pKd (MPP7, Q5T2T1; [2]): below the threshold
pKd (NHERF3_1, Q5T2W1; [2]): below the threshold
pKd (PDZRN3_1, Q9UPQ7; [2]): below the threshold
pKd (PICK1, Q9NRD5; [2]): below the threshold
pKd (SNTG1, Q9NSN8; [2]): below the threshold
pKd (SYNJ2BP, P57105; [2]): below the threshold
Binder: RRVRKLPSTTL [RPS6KA1_-2P, Q15418]

pKd (ARHGAP21, Q5T5U3; [1]): 3.72
pKd (DFNB31_2, Q9P202; [1]): below the threshold
pKd (DLG3_2, Q92796; [1]): below the threshold
pKd (FRMPD2_3, Q68DX3; [1]): below the threshold
pKd (GIPC2, Q8TF65; [1]): below the threshold
pKd (GRIP1_3, Q9Y3R0; [1]): below the threshold
pKd (GRIP2_5, Q9C0E4; [1]): below the threshold
pKd (GRIP2_7, Q9C0E4; [1]): below the threshold
pKd (HTRA4, P83105; [1]): 3.85
pKd (Inadl_10, Q8NI35; [1]): below the threshold
pKd (Inadl_2, Q8NI35; [1]): below the threshold
pKd (Inadl_6, Q8NI35; [1]): below the threshold
pKd (LDB3, O75112; [1]): below the threshold
pKd (LIN7B, Q9HAP6; [1]): below the threshold
pKd (MAGI1_2, Q96QZ7; [1]): below the threshold
pKd (MAGI2_5, Q86UL8; [1]): 4.28
pKd (MAGI3_2, Q5TCQ9; [1]): below the threshold
pKd (MPP6, Q9NZW5; [1]): below the threshold
pKd (MPP7, Q5T2T1; [1]): below the threshold
pKd (NHERF3_1, Q5T2W1; [1]): 5.33
pKd (PDZRN3_1, Q9UPQ7; [1]): 4.13
pKd (PICK1, Q9NRD5; [1]): below the threshold
pKd (SNTG1, Q9NSN8; [1]): below the threshold
pKd (SYNJ2BP, P57105; [1]): 4.44
Binder: LEPAVRSSEL [SH2D3C, Q8N5H7]
